According to paper PMC10777313:

How the values were obtained:
mCD32b (mouse) = mCD32b (mouse) (UniProt P08101); experiment: BLI; Fortebio Octet, 30°C; FcγRs loaded on NTA sensors at 5 μg/mL (2.5 nm); antibodies in solution, six 2-fold dilutions; 1× PBS, 0.1% BSA, 0.02% Tween 20; steady-state equilibrium analysis
mCD16-2 (mouse) = experiment: as above
[1] = molecular target: hCD16b (FcγR IIIb) (human) (UniProt O75015); experiment: BLI
[2] = molecular target: hCD16a (FcγR IIIa) (human) (UniProt P08637); experiment: BLI
[3] = molecular target: hCD32b (FcγR IIb) (human) (UniProt P31994); experiment: BLI
Sequence of UniProt P31994 (P31994 43-310): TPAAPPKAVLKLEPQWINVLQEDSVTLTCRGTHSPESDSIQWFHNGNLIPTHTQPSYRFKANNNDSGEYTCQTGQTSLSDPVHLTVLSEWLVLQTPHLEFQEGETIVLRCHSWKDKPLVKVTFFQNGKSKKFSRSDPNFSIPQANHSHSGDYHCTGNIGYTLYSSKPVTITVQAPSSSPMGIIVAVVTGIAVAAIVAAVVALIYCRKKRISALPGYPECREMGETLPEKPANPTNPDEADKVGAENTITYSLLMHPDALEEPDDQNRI

Sequence of UniProt O75015 (O75015 17-200): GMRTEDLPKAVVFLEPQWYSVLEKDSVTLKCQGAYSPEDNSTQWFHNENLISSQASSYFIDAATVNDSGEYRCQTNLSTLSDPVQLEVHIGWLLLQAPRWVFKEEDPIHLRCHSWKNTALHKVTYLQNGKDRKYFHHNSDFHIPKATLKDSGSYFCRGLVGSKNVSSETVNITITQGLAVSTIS
Sequence of UniProt P08101 (P08101 30-330): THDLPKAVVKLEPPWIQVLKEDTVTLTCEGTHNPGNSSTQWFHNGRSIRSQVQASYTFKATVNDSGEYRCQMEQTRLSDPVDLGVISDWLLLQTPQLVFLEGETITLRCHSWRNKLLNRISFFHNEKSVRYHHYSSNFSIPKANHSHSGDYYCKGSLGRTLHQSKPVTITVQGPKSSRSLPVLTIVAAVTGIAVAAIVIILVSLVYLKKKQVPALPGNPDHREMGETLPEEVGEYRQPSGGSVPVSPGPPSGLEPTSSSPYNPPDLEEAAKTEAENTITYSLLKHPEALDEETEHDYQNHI
Sequence of UniProt P08637 (P08637 17-208): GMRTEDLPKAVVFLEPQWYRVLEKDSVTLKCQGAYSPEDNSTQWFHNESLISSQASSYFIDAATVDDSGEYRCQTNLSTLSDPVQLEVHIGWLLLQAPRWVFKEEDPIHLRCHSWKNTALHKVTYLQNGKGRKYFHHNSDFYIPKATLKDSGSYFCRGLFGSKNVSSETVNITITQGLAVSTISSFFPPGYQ

Row | Substance | Kd (mCD32b (mouse)) [nM] | Kd (mCD16-2 (mouse)) [nM] | Kd [1] [nM] | Kd [2] [nM] | Kd [3] [nM]
1 | Wild-type huE6F6 (huE6F6-wt) (antibody) | 2800 | 1100 | – | – | –
2 | Wild-type huE6F6 (huE6F6-wt) (from UniProt P01857) | – | – | 2580 | 805 | 1100
